In CN113754772A (SUNSHINE GUOJIAN PHARMACEUTICAL SHANGHAI CO LTD, dated 2021):

Key:
KDR-ECD-His蛋白 [1] = molecular target: T1, KDR-ECD-His蛋白 (human, UniProt P35968 20-764); assay: ELISA, KDR-ECD-His coated, HRP-anti-Fab
T1 construct: extracellular domain; Made in HEK-293E cells with an added N-terminal signal peptide (not part of the mature protein); also called KDR抗原

[2] = molecular target: KDR on KDR/NFAT-RE HEK293 cells (UniProt P35968 20-1356); assay: cell-based or functional assay
PDL1-ECD-hFc蛋白 [3] = molecular target: T2, PDL1-ECD-hFc蛋白 (human, UniProt Q9NZQ7 19-238); assay: bridging ELISA: PDL1-ECD-hFc coated, antibody, then KDR-ECD-His, detected with HRP-anti-His
T2 construct: extracellular domain; PDL1-ECD-His with its C-terminal tag exchanged for hFc; not shown: hFc tag in place of the His tag
T2 sequence (Q9NZQ7 19-238): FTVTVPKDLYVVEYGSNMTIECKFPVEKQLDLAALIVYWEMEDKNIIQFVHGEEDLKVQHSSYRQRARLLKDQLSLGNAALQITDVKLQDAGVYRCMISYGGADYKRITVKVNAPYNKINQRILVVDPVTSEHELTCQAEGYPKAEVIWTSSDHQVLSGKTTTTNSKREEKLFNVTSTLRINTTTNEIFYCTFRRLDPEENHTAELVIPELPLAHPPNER

PDL1-ECD-His蛋白 = molecular target: T3, PDL1-ECD-His蛋白 (human, UniProt Q9NZQ7 19-238); assay: ELISA, PDL1-ECD-His coated, HRP goat anti-human Fc
T3 construct: extracellular domain; Made in HEK-293E cells with an added N-terminal signal peptide (not part of the mature protein); also called PD-L1抗原
T3 sequence (Q9NZQ7 other isoform, or with tags, fused parts or gaps): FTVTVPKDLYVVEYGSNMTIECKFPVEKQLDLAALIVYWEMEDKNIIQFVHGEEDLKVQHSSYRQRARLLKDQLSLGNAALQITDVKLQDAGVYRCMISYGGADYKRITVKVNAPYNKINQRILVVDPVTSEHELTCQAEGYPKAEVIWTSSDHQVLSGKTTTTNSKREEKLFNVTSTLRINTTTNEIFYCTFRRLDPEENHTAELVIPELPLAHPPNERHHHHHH

PD-L1 on N87-PDL1 cells = molecular target: T4, PD-L1 on N87-PDL1 cells (UniProt Q9NZQ7 19-290, limits assumed); assay: flow cytometry on N87-PDL1 cells, FITC goat anti-human Fc
T4 construct: whole, on cells; also called N87-PDL1细胞
T4 sequence (Q9NZQ7 19-290 limits assumed): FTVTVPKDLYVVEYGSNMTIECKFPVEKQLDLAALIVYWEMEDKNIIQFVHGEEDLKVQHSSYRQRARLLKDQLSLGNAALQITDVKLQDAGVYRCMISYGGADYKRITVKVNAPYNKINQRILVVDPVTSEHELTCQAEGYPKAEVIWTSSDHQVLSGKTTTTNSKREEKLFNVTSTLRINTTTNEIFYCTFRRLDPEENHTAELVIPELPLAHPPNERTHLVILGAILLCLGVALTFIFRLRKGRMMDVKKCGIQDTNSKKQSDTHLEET

[4] = molecular target: PD-L1 on PD-L1 aAPC/CHO-K1 cells (UniProt Q9NZQ7 19-290, limits assumed); assay: cell-based or functional assay
Sequence of PD-L1 on PD-L1 aAPC/CHO-K1 cells (Q9NZQ7 19-290 limits assumed): as above

KDR-ECD-His蛋白 [5] = molecular target: T1, KDR-ECD-His蛋白; assay: bridging ELISA: PDL1-ECD-hFc coated, antibody, then KDR-ECD-His, detected with HRP-anti-His
PDL1-ECD-hFc蛋白 [6] = molecular target: T2, PDL1-ECD-hFc蛋白; assay: bridging ELISA: PDL1-ECD-hFc coated, antibody titrated, then 1 μg/ml KDR-ECD-His, HRP-anti-His (binding of both antigens at once)

T1 sequence (P35968 other isoform, or with tags, fused parts or gaps): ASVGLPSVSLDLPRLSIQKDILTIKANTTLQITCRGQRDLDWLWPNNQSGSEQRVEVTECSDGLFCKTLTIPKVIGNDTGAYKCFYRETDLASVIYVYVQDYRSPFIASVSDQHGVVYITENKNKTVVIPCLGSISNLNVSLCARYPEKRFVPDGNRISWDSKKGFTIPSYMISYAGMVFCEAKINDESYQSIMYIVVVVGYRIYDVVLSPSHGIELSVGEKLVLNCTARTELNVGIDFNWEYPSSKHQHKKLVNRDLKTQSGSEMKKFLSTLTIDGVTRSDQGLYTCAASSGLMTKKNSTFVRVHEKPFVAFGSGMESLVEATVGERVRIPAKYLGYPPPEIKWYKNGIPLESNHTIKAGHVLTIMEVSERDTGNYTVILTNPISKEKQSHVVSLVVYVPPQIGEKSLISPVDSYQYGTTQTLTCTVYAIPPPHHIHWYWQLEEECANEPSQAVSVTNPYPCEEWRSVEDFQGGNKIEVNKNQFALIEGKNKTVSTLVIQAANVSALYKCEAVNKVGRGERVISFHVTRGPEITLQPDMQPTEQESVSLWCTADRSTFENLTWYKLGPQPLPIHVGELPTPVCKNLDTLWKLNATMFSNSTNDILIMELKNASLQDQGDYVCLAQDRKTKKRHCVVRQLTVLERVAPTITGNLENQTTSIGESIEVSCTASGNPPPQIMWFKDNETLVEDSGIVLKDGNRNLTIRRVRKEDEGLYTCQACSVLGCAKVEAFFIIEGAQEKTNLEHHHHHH
Sequence of KDR on KDR/NFAT-RE HEK293 cells (P35968 20-1356): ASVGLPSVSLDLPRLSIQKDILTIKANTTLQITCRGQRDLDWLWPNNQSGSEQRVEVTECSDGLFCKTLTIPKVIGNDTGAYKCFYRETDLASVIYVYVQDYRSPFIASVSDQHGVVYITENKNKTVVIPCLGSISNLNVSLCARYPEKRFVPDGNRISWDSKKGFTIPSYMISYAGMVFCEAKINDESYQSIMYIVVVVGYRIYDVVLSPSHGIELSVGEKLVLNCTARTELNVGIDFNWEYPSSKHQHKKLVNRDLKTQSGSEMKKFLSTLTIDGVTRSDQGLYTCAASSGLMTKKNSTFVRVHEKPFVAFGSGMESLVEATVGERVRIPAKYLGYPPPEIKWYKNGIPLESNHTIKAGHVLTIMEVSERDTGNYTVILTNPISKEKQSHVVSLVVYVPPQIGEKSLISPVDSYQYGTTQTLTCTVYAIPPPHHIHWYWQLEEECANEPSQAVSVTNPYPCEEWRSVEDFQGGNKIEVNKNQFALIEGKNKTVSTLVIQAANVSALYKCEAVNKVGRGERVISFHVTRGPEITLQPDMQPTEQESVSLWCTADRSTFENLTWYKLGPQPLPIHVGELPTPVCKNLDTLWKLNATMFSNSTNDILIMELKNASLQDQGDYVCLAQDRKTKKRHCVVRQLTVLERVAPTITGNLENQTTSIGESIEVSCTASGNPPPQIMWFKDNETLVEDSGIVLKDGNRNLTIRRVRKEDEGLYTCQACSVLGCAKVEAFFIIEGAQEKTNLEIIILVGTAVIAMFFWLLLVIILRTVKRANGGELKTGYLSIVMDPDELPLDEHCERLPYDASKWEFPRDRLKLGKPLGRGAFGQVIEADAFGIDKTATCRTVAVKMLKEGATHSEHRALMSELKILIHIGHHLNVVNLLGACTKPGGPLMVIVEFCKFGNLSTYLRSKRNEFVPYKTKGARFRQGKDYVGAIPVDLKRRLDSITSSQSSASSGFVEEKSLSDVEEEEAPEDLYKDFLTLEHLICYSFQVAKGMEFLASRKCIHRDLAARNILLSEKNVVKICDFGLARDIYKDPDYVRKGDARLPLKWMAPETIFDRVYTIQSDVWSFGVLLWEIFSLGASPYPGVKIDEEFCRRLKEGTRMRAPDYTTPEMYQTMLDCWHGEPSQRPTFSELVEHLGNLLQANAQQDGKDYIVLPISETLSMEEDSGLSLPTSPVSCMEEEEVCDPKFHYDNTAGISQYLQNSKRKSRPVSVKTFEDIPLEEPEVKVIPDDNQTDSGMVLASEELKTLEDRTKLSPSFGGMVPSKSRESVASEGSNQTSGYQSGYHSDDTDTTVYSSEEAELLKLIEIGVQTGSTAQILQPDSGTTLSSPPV

B1: 抗KDR单抗 (anti-human KDR monoclonal antibody) (antibody, V domains shown)
VH: EVQLVESGGGLVKPGGSLRLSCAASGFTFSSYSMNWVRQAPGKGLEWVSSISSSSSYIYYADSVKGRFTISRDNAKNSLYLQMNSLRAEDTAVYYCARVTDAFDIWGQGTLVTVSS
VL: VLTQPPSVSGAPGQRVTISCTGSHSNFGAGTDVHWYQHLPGTAPKLLIHGDSNRPSGVPDRFSGSKSGTSASLAITGLQAEDEADYYCQSYDYGLRGWVFGGGTKLTVL
notes: Whole monoclonal antibody; CDRs from clone 3A10 of Dan Lu et al. 2003, frameworks mutated in house; also called 抗人KDR单抗; anti-KDR mAb
With B1 the EC50 (KDR-ECD-His蛋白 [1]) was 0.26 nM, the “IC50 (luminescence, VEGF Bioassay)” value [2] was 3.1 nM and the binding result (PDL1-ECD-hFc蛋白 [3]) was “no binding (tested: 12nM)”.

B2: 抗PD-L1单抗 (anti-human PD-L1 monoclonal antibody M8) (antibody, V domains shown)
VH: QVQLQQSGGGLVKPSQSLSLTCTVSGFSLTSYGVHWVRQPPGKGLEWIGLIWSGGGTDYNPSLKSRLTISRDTSKNQVSFKISSLTAADTAVYYCARQLGLRAMDYWGQGTSVTVSS
VL: EIVLTQSPDFLSVTPKEKVTITCRASQSIGTTIHWYQQKPDQSPKLLIKYASQSFSGVPSRFSGSGSGTDFTLTINSVEAEDAATYYCQQSNSWPLTFGAGTKLEIK
notes: also called 抗人PD-L1单抗M8; anti-PDL1 mAb
With B2 the EC50 (PDL1-ECD-His蛋白) was 0.13 nM, the EC50 (PD-L1 on N87-PDL1 cells) was 0.13 nM and the “IC50 (luminescence, PD-1/PD-L1 Blockade Bioassay)” value [4] was 0.23 nM. B2: no binding (tested: 12nM) (KDR-ECD-His蛋白 [5]).

B3: anti-PDL1×KDR BsAb2 (bispecific antibody)
heavy (part 1 of 2): QVQLQQSGGGLVKPSQSLSLTCTVSGFSLTSYGVHWVRQPPGKGLEWIGLIWSGGGTDYNPSLKSRLTISRDTSKNQVSFKISSLTAADTAVYYCARQLGLRAMDYWGQGTSVTVSS
heavy (part 2 of 2): GGGGSGGGGSGGGGSEVQLVESGGGLVKPGGSLRLSCAASGFTFSSYSMNWVRQAPGKGLEWVSSISSSSSYIYYADSVKGRFTISRDNAKNSLYLQMNSLRAEDTAVYYCARVTDAFDIWGQGTLVTVSSGGGGSGGGGSGGGGSGGGGSVLTQPPSVSGAPGQRVTISCTGSHSNFGAGTDVHWYQHLPGTAPKLLIHGDSNRPSGVPDRFSGSKSGTSASLAITGLQAEDEADYYCQSYDYGLRGWVFGGGTKLTVL
light: EIVLTQSPDFLSVTPKEKVTITCRASQSIGTTIHWYQQKPDQSPKLLIKYASQSFSGVPSRFSGSGSGTDFTLTINSVEAEDAATYYCQQSNSWPLTFGAGTKLEIKRTVAAPSVFIFPPSDEQLKSGTASVVCLLNNFYPREAKVQWKVDNALQSGNSQESVTEQDSKDSTYSLSSTLTLSKADYEKHKVYACEVTHQGLSSPVTKSFNRGEC
notes: also called 抗PDL1×KDR双抗; not shown: CH1-CH2-CH3 heavy chain constant region
B3 showed an EC50 (KDR-ECD-His蛋白 [1]) of 0.23 nM, an EC50 (PDL1-ECD-His蛋白) of 0.14 nM and an EC50 (PDL1-ECD-hFc蛋白 [6]) of 0.14 nM. The EC50 (PD-L1 on N87-PDL1 cells) was 0.15 nM, the “IC50 (luminescence, VEGF Bioassay)” value [2] was 6.09 nM and the “IC50 (luminescence, PD-1/PD-L1 Blockade Bioassay)” value [4] was 0.22 nM.

B4: anti-PDL1×KDR BsAb1 (bispecific antibody)
heavy (part 1 of 2): QVQLQQSGGGLVKPSQSLSLTCTVSGFSLTSYGVHWVRQPPGKGLEWIGLIWSGGGTDYNPSLKSRLTISRDTSKNQVSFKISSLTAADTAVYYCARQLGLRAMDYWGQGTSVTVSS
heavy (part 2 of 2): GGGGSGGGGSGGGGSVLTQPPSVSGAPGQRVTISCTGSHSNFGAGTDVHWYQHLPGTAPKLLIHGDSNRPSGVPDRFSGSKSGTSASLAITGLQAEDEADYYCQSYDYGLRGWVFGGGTKLTVLGGGGSGGGGSGGGGSGGGGSEVQLVESGGGLVKPGGSLRLSCAASGFTFSSYSMNWVRQAPGKGLEWVSSISSSSSYIYYADSVKGRFTISRDNAKNSLYLQMNSLRAEDTAVYYCARVTDAFDIWGQGTLVTVSS
light: EIVLTQSPDFLSVTPKEKVTITCRASQSIGTTIHWYQQKPDQSPKLLIKYASQSFSGVPSRFSGSGSGTDFTLTINSVEAEDAATYYCQQSNSWPLTFGAGTKLEIKRTVAAPSVFIFPPSDEQLKSGTASVVCLLNNFYPREAKVQWKVDNALQSGNSQESVTEQDSKDSTYSLSSTLTLSKADYEKHKVYACEVTHQGLSSPVTKSFNRGEC
notes: as for B3
Work on B4 yielded an EC50 (KDR-ECD-His蛋白 [1]) of 0.23 nM, an EC50 (PDL1-ECD-His蛋白) of 0.13 nM and an EC50 (PDL1-ECD-hFc蛋白 [6]) of 0.13 nM. For the same binder, the EC50 (PD-L1 on N87-PDL1 cells) was 0.15 nM, the “IC50 (luminescence, VEGF Bioassay)” value [2] was 13.5 nM and the “IC50 (luminescence, PD-1/PD-L1 Blockade Bioassay)” value [4] was 0.27 nM.

B5: anti-PDL1×KDR BsAb3 (bispecific antibody, human IgG1, lambda)
heavy: not shown
light: VLTQPPSVSGAPGQRVTISCTGSHSNFGAGTDVHWYQHLPGTAPKLLIHGDSNRPSGVPDRFSGSKSGTSASLAITGLQAEDEADYYCQSYDYGLRGWVFGGGTKLTVLGQPKAAPSVTLFPPSSEELQANKATLVCLISDFYPGAVTVAWKADSSPVKAGVETTTPSKQSNNKYAASSYLSLTPEQWKSHRSYSCQVTHEGSTVEKTVAPTECS
notes: also called 抗PDL1×KDR双抗
B5 showed an EC50 (KDR-ECD-His蛋白 [1]) of 0.41 nM, an EC50 (PDL1-ECD-His蛋白) of 0.15 nM and an EC50 (PDL1-ECD-hFc蛋白 [6]) of 0.2 nM. The EC50 (PD-L1 on N87-PDL1 cells) was 0.21 nM, the “IC50 (luminescence, VEGF Bioassay)” value [2] was 4.35 nM and the “IC50 (luminescence, PD-1/PD-L1 Blockade Bioassay)” value [4] was 0.3 nM.
